Here are results for two molecules from patent US20250042968A1, “EPHRIN LIGAND MIMETIC PEPTIDES FOR THE TREATMENT OF NEURODEGENERATIVE DISEASES” (University of Miami, priority 2022, published 2025).

The test system of the test is human fetal brain-derived neural stem cells (hNSC). Put plainly: hNSC growth on ephrin-ligand repulsive substrates. It is filed as cell-based. The settings on record: for substrate effect on neuronal cell growth: laminin-coated surfaces containing pre-clustered efn ligand. The procedure: Fetal brain-derived neural stem cells (hNSC): In order to evaluate the effect of xEFN peptides on human neuronal cells, StemPro hNSC were purchased from ThermoFisher Scientific (Cat. no. A15654) and cultured according to the manufacturer's recommended protocol. Briefly, cells were grown in non-adherent neurosphere suspension cultures in StemPro NSC serum-free media (NSC-SFM) (Cat. no. A10509-01) supplemented with 2 mM GlutaMAX-I supplement, 6 U/mL heparin, and 200 μM ascorbic acid (Sigma-Aldrich, Cat. no. A8960). Culture media was changed every 2 days and cells were passaged every 7 days as undifferentiated hNSC. To induce differentiation into neuronal cells, hNSC neurospheres were dissociated into single-cell suspensions using StemPro Accutase for 5 minutes at 37° C. followed by mechanical pipetting. hNSC were then plated onto Geltrex-coated culture vessels at a concentration of 2×10^4 cells/cm^2 in neuronal differentiation media consisting of NSC media without bFGF or EGF and supplemented with B-27 supplement (ThermoFisher Scientific) for 3 days prior to performing further in vitro assays.
Glial-bound efn ligands have been associated with mediating the major repulsive milieu for neuronal process in the CNS. […] Moreover, assays on the repulsive nature of efn ligand-presenting surfaces have been a mainstay in axonal guidance studies for many decade. The use of xEFN peptides to antagonize this repulsive signaling from efn ligand substrates was evaluated on human fetal brain-derived neural stem cells (hNSC).
Recombinant Efn ligands (A2, A4, and B3) containing a His-Tag were purchased from R&D Systems, and were pre-clustered using an anti-His antibody (Genetex) for 30 min. The pre-clustered Efn ligands, or anti-his antibody alone, (control) were then mixed with laminin from human placenta (Sigma-Aldrich) in suspension and used to coat the growth surface of a 24-well plate. […] The entire wells were then scanned using an EVOS FL Auto fluorescent microscope and the images were analyzed in the ImageJ software to calculate cell coverage area.

B1: efnB1: pre-clustered ephrin ligand on laminin-coated surface (protein, UniProt P98172 28-346, looked up)
Ephrin-B1: LAKNLEPVSWSSLNPKFLSGKGLVIYPKIGDKLDIICPRAEAGRPYEYYKLYLVRPEQAAACSTVLDPNVLVTCNRPEQEIRFTIKFQEFSPNYMGLEFKKHHDYYITSTSNGSLEGLENREGGVCRTRTMKIIMKVGQDPNAVTPEQLTTSRPSKEADNTVKMATQAPGSRGSLGDSDGKHETVNQEEKSGPGASGGSSGDPDGFFNSKVALFAAVGAGCVIFLLIIIFLTVLLLKLRKRHRKHTQQRAAALSLSTLASPKGGSGTAGTEPSDIIIPLRTTENNYCPHYEKVSGDYGHPVYIVQEMPPQSPANIYYKV
modifications: pre-clustered
notes: pre-clustered ephrin ligand on laminin-coated surface
B1: the “substrate effect on neuronal cell growth” value is on record as “highly repulsive substrates”.

B2: efnB3: recombinant Efn ligand containing a His-Tag (R&D Systems), pre-clustered with anti-His antibody (protein, UniProt Q15768 28-226, looked up)
extracellular domain: LSLEPVYWNSANKRFQAEGGYVLYPQIGDRLDLLCPRARPPGPHSSPNYEFYKLYLVGGAQGRRCEAPPAPNLLLTCDRPDLDLRFTIKFQEYSPNLWGHEFRSHHDYYIIATSDGTREGLESLQGGVCLTRGMKVLLRVGQSPRGGAVPRKPVSEMPMERDRGAAHSLEPGKENLPGDPTSNATSRGAEGPLPPPSMP
modifications: extracellular domain His tag, pre-clustered
notes: recombinant Efn ligand containing a His-Tag (R&D Systems), pre-clustered with anti-His antibody
With B2, the “substrate effect on neuronal cell growth” value is on record as “highly repulsive substrates”. Also, the “hNSC confluence on pre-clustered efn ligand substrate” value (no peptide, compared to the laminin-only control confluence) is given as 44.61+/−1.61%.
